This note sets out measurements from publication PMC4048032.

The assay addresses VopL C-terminal Domain (VCD), residues 247–484 (Vibrio parahaemolyticus) (UniProt Q87GE5). In words: crystal structure.

For the substance “VopL C-terminal Domain (VCD), residues 247–484 (from UniProt Q87GE5 247-484) (domain or fragment)”, the stoichiometry N was determined as 2.

For orientation: stoichiometry N means a count of units in the complex or per binding partner.
